Reference: patent publication US8703915B2, “Mutant proteins and methods for producing them” (Heptares Therapeutics Limited, priority 2009, dated 2014)

Tests used:
A2A receptor [1] = assay: cAMP functional assay (HTRF), NECA stimulation of CHO cells over-expressing A2A receptor; type: cell-based, human; conditions: intracellular cAMP, CHO cells
Experimental: (§1) In order to stabilise an agonist-bound conformation, a systematic Alanine-scan was performed in order to identify mutations that may stabilise the A2A receptor bound to its full agonist NECA. In this A2A agonist-bound study, L2.46 (L48A) is the most stabilising single mutant. When NECA is bound to the solubilised receptor, removing the L48 side chain (in A2A-L48A) dramatically increases the thermostability of the ligand-receptor complex resulting in an increase of 14° C. over the wild type receptor in the detergent DDM (FIG. 5a). […] We evaluated the signalling property of the A2A receptor by over-expressing the receptor in CHO cells. A2A agonist stimulation triggers the signal transduction through the Gs-trimeric complex and increases the intracellular cAMP level. The increase in intracellular cAMP can be detected by and quantified by using an anti-cAMP Mab antibody competition assay. […] However the signalling efficacy is reduced to 30% (FIG. 6).
This assay takes advantage of Homogeneous Time-Resolved Fluorescence (HTRF) using cAMP labeled with the dye d2 in presence of an anti-cAMP Mab labeled with Cryptate. The method is based on a competitive immunoassay between cAMP produced by cells and the cAMP labeled with the dye d2. CHO cells were grown using Glutamax Ham's F12, 10% FBS in 96-well plates, clear bottom and Black wall (Costar). Cells were seeded at a density of 12500 cells per well, grown overnight, washed with PBS and then transfected with 100 ng of pcDNA-3-A2A(2-316) pre-incubated with 0.3 μL of GeneJuice (Novagen) per well. After 48 hours of receptor expression, the medium was removed, the cells were washed in PBS then stimulated by using different NECA concentrations, in the presence of Rolipram (50 μM) and Adenosine deaminase in a total volume of 50 μL for 30 minutes. Dilution was realised in Hamf's F12/cAMP-d2 conjugate according to the manufacturer protocol, without serum. […] The plate was incubated at room temperature for 1 hour and then read using the Pherastar 96-well time-resolved fluorescence plate reader (Ex 340 nm; Em 665/620 nm).

A2A receptor [2] = molecular target: T1, A2A receptor (Homo sapiens, UniProt P29274); assay: Thermostability of A2A receptor in ZM241385 antagonist-bound state, solubilised in DDM; type: physicochemical; conditions: ZM antagonist bound state (100 nM)
T1 construct: A2AR-(2-316) expression was carried out by using the pRG/III-hs-MBP E. coli expression vector; MBP (named only in the vector name); made in house; host or cells: E. coli DH5alpha
Experimental: as §1
A2AR-(2-316) expression was carried out by using the pRG/III-hs-MBP E. coli expression vector and DH5α cells. Cells were grown at 37° C. in 2 L flasks containing 500 mL of 2×TY medium supplemented with Ampicillin (100 μg/mL) and glucose (0.2% w/v). At OD600≈0.7, IPTG and theophylline were added at final concentrations respectively of 0.5 mM and 100 μM, and the temperature was reduced to 20° C. […]

adenosine A2A receptor = assay: Antagonist binding to adenosine A2A NPxxY motif alanine mutants (Table 1); set-up: species or system human
Experimental: An alanine scan was carried out in a similar fashion on an adenosine A2A receptor along with the 5HT2C receptor in the presence of the antagonist Mesulergine. Both alanine scans were carried out in order to further stabilize the antagonist conformation. […] The motif in Adenosine A2A is NPFIY (SEQ ID NO: 364) and for the 5HT2C is NPLVY (SEQ ID NO: 363). Therefore mutations in this region of the receptor contain stabilising mutations specific to the agonist conformation and detrimentally effect antagonist binding.
Adenosine A2A receptor was solubilised from transiently transfected mammalian cells about 36 hours post transfection, in 50 mM Tris pH7.4/400 mM NaCl/0.5% DDM and protease inhibitor. Cell lysates were left at 4° C. on a rotator and then cleared by centrifugation at 13,200 rpm for 20 minutes at 4° C. Solubilised receptors were then purified on Ni-NTA beads and eluted with 50 mM histidine. The eluted receptor was used in radioligand binding assay. The Tm was determined by incubating 108 μl of the eluate with Zm241385 radioligand at a final concentration of 100 nM for one hour at 4° C. The six ligand incubations are then incubated at six different temperatures from 20° C. to 50° C., for thirty minutes. Receptor bound and free radioligand were separated using G25 Sephadex spin columns.

A2A receptor [3] = assay: Thermostability of A2A receptor in NECA agonist-bound state, solubilised in DDM; type: physicochemical, human; conditions: NECA agonist-bound state (400 nM), solubilised in DDM
Experimental: as §1
A2AR-(2-316) expression was carried out by using the pRG/III-hs-MBP E. coli expression vector and DH5α cells. Cells were grown at 37° C. in 2 L flasks containing 500 mL of 2×TY medium supplemented with Ampicillin (100 μg/mL) and glucose (0.2% w/v). At OD600≈0.7, IPTG and theophylline were added at final concentrations respectively of 0.5 mM and 100 μM, and the temperature was reduced to 20° C. After 22 to 24 hours, cells were harvested in aliquots of 14 mL, centrifuged for 30 min and stored at −20° C. Both 5HT2C and M4 receptors were transiently expressed in HEK293T cells using GeneJuice transfection reagent used according to the manufacturers guidelines.
An aliquot of E. coli cells expressing wild type or mutant A2AR-(2-316) (14 mL) was thawed on ice and cells were resuspended in 500 μL of buffer A (50 mM Tris HCl mM/pH 7.4; 0.4 M NaCl, 250 μg/mL lysozyme (Sigma), 1 mg/mL DNAse I (Sigma), supplemented with complete EDTA-free Protease inhibitor cocktail (Roche)) and incubated 1 hour at 4° C. Samples were then sonicated 1 min at 4° C. using a cup-horn sonicator. […]

- pEC50 (A2A receptor [1]): 7.27±0.19
- % of Wildtype binding (adenosine A2A receptor; antagonist binding): 100%
- DPM1 (adenosine A2A receptor; antagonist binding, replicate 1): 13513 DPM
- DPM2 (adenosine A2A receptor; antagonist binding, replicate 2): 12949 DPM
- Average - BG (adenosine A2A receptor; average minus background): 12731
- Average (adenosine A2A receptor; average of DPM1 and DPM2): 13231
B1: A2A-WT: wild type human adenosine A2A receptor, A2AR-(2-316) (protein, UniProt P29274 2-316, looked up, fragment)
chain: PIMGSSVYITVELAIAVLAILGNVLVCWAVWLNSNLQNVTNYFVVSLAAADIAVGVLAIPFAITISTGFCAACHGCLFIACFVLVLTQSSIFSLLAIAIDRYIAIRIPLRYNGLVTGTRAKGIIAICWVLSFAIGLTPMLGWNNCGQPKEGKNHSQGCGEGQVACLFEDVVPMNYMVYFNFFACVLVPLLLMLGVYLRIFLAARRQLKQMESQPLPGERARSTLQKEVHAAKSLAIIVGLFALCWLPLHIINCFTFFCPDCSHAPLWLMYLAIVLSHTNSVVNPFIYAYRIREFRQTFRKIIRSHVLRQQEPFKA
- Tm (A2A receptor [2]): 33.0±0.7 °C
- Tm (A2A receptor [3]): 28.7±0.5 °C
